From patent US20200339684A1 (published 2020) come the findings set out here.

The target of assay [1] is T1, human CD83 on the cell surface (KM-H2, L428, FDCP1 and BB88 cells transfected with full length human CD83) (human, UniProt Q01151 20-205).
T1 sequence (looked up): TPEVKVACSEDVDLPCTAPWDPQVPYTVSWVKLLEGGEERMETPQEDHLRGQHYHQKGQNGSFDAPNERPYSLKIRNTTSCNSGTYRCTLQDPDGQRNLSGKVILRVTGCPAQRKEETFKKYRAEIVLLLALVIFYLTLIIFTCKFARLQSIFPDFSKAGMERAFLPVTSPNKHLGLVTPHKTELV
Kind of assay: cell-based or functional assay.

Assay [2] has as its target T2, recombinant human CD83 extracellular domain with His tag (hCD83ECD-His) (human, UniProt Q01151 20-144).
T2 construct: extracellular domain; Expressed in CHO cells and purified by IMAC; also called recombinant human CD83ECD-His; recombinant CD83; not shown: His tag
T2 sequence (looked up): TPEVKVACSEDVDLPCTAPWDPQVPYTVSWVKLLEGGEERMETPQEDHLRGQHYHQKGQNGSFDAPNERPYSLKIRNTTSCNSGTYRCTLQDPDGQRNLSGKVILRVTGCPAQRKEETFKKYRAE
Nature of the assay: Biacore SPR, Fab. The protocol: (§1) Fab fragments were generated by papain digestion with Pierce Fab MicroFab Preparation Kit, as per the manufacturer's instructions except that the kit-provided Protein A resin was replaced with MAbSelect SuRE resin (Seldon et al., J. Biomol. Tech. 22: 50-2, 2011). Fab were diluted in HBS-EP buffer consisting of 10 mM Hepes, 150 mM Sodium Chloride, 3 mM EDTA, and 0.005% Polysorbate 20 (GE Healthcare). Diluted Fab were assessed for affinity using a BiaCore3000 (GE Healthcare) instrument equipped with a CMS chip coupled with 100 Resonance Units (RU) of hCD83ECD-His protein, using the Kinetic Analysis wizard protocol. Kinetic rates were estimated using BiaEvaluation Software (GE Healthcare) using the inbuilt 1:1 binding model with mass transfer limitations.
(§2) FIG. 7A graphically highlights these improvements of 3C12.C binding relative to 3C12.WT, as higher binding signal intensity (i.e., RU) is achieved using reduced concentrations of the VL shuffled variant during the […] Kₒₙ-dependent Association Phase. Similarly, a slower off-rate is observed for 3C12.C Fab during the Koff-dependent dissociation phase.
On the technique in general: In SPR one partner is held on a chip, and binding of the other changes the refractive index at the surface.

Assay [3] has as its target T2, recombinant human CD83 extracellular …. Kind of assay: BiaCore SPR, Fab over immobilised hCD83ECD, 1:1 model with mass transfer. The protocol:
as §1, §2

Assay [4] shares this target. Nature of the assay: BiaCore SPR, Fab over immobilised hCD83ECD. The protocol: as §1

B1: 3C12.C IgG (affinity matured, VL shuffled variant of 3C12, human IgG1 kappa) (antibody, V domains shown)
VH: EVQLQESGGGVVQPGRSLRLSCAASGFTFSSYAMHWVRQAPGKGLEWVAVISYDGSNKYYADSVKGRFTISRDNSKNTLYLQMNSLRAEDTAMYYCARHYYYGMDVWGQGTTLTVSS
VL: EIVLTQSPSSLSASVGDRVTITCRASQGIRNYLAWYQQKPGKVPKLLIYATSTLQSGVPSRFSGSRSGTEFTLTISSLHPEDFATYYCQQVDRFPYTFGQGTKVELKR
Consider B1, for which, in assay [1], the “ADCC potency in a chromium release assay, fold against 3C12.WT” value is over 25 fold.

B2: 3C12.B Fab fragment (Fab, V domains shown)
VH: B1 VH
VL: EVVMTQSPSFLSASIGDRVSITCRTSQGISNHLAWYQQKPGKAPKLLIYAASSLQSGVPSRFSGSGSGTDFTLTISSLQPEDIATYYCQQVNSYPYTFGQGTRLELKR
The term Kd denotes a measure of binding affinity in units of concentration. By koff is commonly meant the first-order rate constant of dissociation. Usually kon stands for a measure of how fast the partners come together. For the molecule B2, the “fold reduction in on-rate relative to 3C12 wildtype” value in assay [2] was about 3 fold. In assay [3], the Kd stood at 0.043 µM, the koff was found to be 0.014 s⁻¹ and the kon was determined as 320000 M⁻¹ s⁻¹.

B3: 3C12.C Fab fragment (Fab, V domains shown)
VH: B1 VH
VL: B1 VL
On to B3, for which, in assay [3], the Kd amounted to 0.0061 µM, the koff came to 0.0078 s⁻¹ and the kon was 1.3e+06 M⁻¹ s⁻¹.

B4: 3C12.WT Fab fragment (Fab, V domains shown)
VH: B1 VH
VL: EIVMTQSPSLLSASLGDRVTITCRASQGIKNYFAWYQQRPGKAPKLLIYATSNLQSGVPSRFSGSGSGTEFTLTISSLQPEDFATYYCQQLGAYPLTFGGGTKLELKR
notes: also called 3C12 Fab; wildtype 3C12 Fab
Regarding B4, in assay [3], the Kd came out at 0.13 µM, the koff was found to be 0.12 s⁻¹ and the kon amounted to 900000 M⁻¹ s⁻¹. Further, in assay [4], the Kd came out at 0.13 µM, the koff was found to be 0.12 s⁻¹ and the kon stood at 950000 M⁻¹ s⁻¹.

B5: 3C12.D Fab fragment (Fab, V domains shown)
VH: B1 VH
VL: EIQMTQSPSSLSASVGDRVTITCRASQGISSWLAWYQQKPGKAPKLLIYAASSLQSGVPSRFSGSGSGTEFTLTISSLQPDDFATYYCQKLSSYPYTFGGGTKVELKR
B5: in assay [3], the Kd was found to be 0.025 µM, the koff was 0.027 s⁻¹ and the kon amounted to 1.1e+06 M⁻¹ s⁻¹.

B6: 3C12.Kif IgG (3C12 produced in the presence of kifunensine, low-fucose IgG) (antibody, V domains shown)
VH: B1 VH
VL: B4 VL
modifications: N-glycan without fucose (high mannose, predominantly GlcNAc2Man9), produced with 2 µg/mL kifunensine
In the case of B6, in assay [1], the “ADCC potency in a chromium release assay, fold against 3C12.WT” value was over 25 fold.

B7: 3C12.E Fab fragment (Fab, V domains shown)
VH: B1 VH
VL: EIVLTQSPSSLSASVGDRVTITCRASQGISNYLAWYQQKPGKVPKLLIYAASTLQSGVPSRFSGSGSGTHFTLTISSLQPEDVATYYCQKCNSAPYTFGQGTKVELKR
Take B7: in assay [3], the Kd was 0.042 µM, the koff was 0.05 s⁻¹ and the kon is 1.2e+06 M⁻¹ s⁻¹.
